The values below come from article PMC5702047.

The target in the test is TRC40 (rabbit (endogenous in reticulocyte lysate)).

For “cytosolic domain of the WRB receptor (WRBcc) (domain or fragment)”, the reduction of the integration of Sec61βOPG2 and RAMP4OPG into RMs (N-glycosylation) in vitro, post-translational, with an excess of WRBcc was determined as 50%.
